According to PMC3282106:

Columns and labels:
Assay in all cases: ITC
T-Mod(Dss1A) = T-Mod(Dss1A) (UniProt P31948)
T-Mod(Dss1B) = T-Mod(Dss1B) (UniProt P31948)
the T-Mods = target: the T-Mods

Molecule: Dss1-C19 peptide mutant R57A (from UniProt P60896 52-70)
- Kd (T-Mod(Dss1A)): 157 µM
- stoichiometry N (T-Mod(Dss1A)): 0.8
- Kd (T-Mod(Dss1B)): 665 µM

Molecule: Dss1-C19 peptide (from UniProt P60896 52-70)
- Kd (T-Mod(Dss1A)): 20.2 µM
- stoichiometry N (T-Mod(Dss1A)): 0.8
- Kd (T-Mod(Dss1B)): 18.6 µM
- stoichiometry N (T-Mod(Dss1B)): 1.1

B1: Sem1 (natural protein)
chain: MSTDVAAAQAQSKIDLTKKKNEEINKKSLEEDDEFEDFPIDTWANGETIKSNAVTQTNIWEENWDDVEVDDDFTNELKAELDRYKRENQ
- Kd (the T-Mods): 175 µM
